Results as given in IntAct's records for PubMed 22522702.

B1: ADP-ribosylation factor 6 (Mus musculus), P62331 (parent)
chain: MGKVLSKIFGNKEMRILMLGLDAAGKTTILYKLKLGQSVTTIPTVGFNVETVTYKNVKFNVWDVGGQDKIRPLWRHYYTGTQGLIFVVDCADRDRIDEARQELHRIINDREMRDAIILIFANKQDLPDAMKPHEIQEKLGLTRIRDRNWYVQPSCATSGDGLYEGLTWLTSNYKS
partner: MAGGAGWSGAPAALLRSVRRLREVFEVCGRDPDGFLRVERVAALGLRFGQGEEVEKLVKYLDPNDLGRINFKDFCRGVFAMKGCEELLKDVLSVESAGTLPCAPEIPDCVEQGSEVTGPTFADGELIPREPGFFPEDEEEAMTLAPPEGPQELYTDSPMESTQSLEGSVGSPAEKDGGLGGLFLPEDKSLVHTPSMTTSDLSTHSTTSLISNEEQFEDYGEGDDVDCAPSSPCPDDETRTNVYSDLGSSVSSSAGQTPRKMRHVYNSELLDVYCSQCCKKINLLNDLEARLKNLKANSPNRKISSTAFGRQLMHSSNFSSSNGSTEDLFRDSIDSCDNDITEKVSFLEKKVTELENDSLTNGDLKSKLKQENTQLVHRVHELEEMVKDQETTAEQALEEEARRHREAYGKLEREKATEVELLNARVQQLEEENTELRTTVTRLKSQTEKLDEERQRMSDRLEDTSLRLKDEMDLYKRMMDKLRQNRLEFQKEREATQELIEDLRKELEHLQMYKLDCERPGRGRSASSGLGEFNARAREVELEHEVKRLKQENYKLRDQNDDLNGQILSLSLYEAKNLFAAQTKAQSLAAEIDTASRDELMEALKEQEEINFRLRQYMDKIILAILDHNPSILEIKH
B2: ADP-ribosylation factor 6 (Mus musculus), P62331 (parent)
chain: B1 chain
partner: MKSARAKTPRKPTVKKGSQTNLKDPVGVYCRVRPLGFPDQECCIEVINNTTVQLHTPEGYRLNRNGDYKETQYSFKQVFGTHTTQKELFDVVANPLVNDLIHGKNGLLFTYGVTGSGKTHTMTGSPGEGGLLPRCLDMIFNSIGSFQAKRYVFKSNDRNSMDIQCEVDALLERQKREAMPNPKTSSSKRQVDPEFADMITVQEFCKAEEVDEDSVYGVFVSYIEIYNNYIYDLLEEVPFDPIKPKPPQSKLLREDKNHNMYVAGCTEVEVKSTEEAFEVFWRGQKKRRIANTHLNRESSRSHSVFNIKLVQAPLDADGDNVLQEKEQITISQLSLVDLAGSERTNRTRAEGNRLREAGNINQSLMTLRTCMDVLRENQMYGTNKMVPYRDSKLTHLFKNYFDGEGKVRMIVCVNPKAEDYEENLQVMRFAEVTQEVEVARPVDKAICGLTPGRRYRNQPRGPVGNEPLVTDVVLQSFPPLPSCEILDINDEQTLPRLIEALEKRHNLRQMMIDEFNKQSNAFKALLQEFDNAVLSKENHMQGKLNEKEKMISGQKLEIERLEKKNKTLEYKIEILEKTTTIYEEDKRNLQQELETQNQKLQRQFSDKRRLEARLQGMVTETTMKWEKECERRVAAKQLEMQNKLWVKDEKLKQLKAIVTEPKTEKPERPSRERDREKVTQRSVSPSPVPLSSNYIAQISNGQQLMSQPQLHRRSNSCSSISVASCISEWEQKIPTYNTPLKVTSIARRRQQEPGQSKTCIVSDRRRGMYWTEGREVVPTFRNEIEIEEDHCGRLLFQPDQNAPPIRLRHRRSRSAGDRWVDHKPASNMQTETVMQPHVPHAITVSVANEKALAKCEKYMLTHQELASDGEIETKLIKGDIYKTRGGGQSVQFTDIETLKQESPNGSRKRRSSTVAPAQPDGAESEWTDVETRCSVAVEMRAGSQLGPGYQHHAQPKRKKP
B3: ADP-ribosylation factor 6 (Mus musculus), P62331 (parent)
chain: B1 chain
partner: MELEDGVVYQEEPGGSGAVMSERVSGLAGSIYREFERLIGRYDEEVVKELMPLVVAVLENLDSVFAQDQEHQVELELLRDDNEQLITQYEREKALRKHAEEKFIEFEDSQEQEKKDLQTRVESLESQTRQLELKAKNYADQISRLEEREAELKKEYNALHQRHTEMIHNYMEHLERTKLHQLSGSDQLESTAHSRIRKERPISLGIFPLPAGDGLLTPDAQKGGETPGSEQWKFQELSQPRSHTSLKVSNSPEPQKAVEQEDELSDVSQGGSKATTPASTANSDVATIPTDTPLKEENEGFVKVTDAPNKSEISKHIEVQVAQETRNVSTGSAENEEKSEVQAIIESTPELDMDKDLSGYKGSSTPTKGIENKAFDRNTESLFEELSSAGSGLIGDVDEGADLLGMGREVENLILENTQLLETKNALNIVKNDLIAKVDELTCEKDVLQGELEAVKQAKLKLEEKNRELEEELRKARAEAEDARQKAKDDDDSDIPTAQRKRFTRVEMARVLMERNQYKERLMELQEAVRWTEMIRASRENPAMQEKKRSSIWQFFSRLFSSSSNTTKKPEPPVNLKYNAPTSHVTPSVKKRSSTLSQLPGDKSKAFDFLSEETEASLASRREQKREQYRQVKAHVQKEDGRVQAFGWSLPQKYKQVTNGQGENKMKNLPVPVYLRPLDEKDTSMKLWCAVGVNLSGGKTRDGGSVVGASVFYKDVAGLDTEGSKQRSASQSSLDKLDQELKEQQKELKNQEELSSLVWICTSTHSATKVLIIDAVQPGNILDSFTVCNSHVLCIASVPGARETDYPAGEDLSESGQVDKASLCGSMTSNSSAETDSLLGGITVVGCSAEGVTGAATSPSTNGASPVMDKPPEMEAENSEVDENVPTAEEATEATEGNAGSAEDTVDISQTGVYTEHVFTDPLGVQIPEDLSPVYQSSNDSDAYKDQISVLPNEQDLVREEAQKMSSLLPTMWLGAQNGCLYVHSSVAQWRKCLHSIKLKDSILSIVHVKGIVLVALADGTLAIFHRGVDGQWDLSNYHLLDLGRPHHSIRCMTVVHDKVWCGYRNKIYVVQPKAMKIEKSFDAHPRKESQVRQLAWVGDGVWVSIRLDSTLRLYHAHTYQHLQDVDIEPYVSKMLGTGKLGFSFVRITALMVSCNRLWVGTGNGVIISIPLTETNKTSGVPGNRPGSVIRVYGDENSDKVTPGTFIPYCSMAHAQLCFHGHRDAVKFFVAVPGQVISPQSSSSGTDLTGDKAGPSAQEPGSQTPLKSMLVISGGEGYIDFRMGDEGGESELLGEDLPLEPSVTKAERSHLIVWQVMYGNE
B4: ADP-ribosylation factor 6 (Mus musculus), P62331 (parent)
chain: B1 chain
partner: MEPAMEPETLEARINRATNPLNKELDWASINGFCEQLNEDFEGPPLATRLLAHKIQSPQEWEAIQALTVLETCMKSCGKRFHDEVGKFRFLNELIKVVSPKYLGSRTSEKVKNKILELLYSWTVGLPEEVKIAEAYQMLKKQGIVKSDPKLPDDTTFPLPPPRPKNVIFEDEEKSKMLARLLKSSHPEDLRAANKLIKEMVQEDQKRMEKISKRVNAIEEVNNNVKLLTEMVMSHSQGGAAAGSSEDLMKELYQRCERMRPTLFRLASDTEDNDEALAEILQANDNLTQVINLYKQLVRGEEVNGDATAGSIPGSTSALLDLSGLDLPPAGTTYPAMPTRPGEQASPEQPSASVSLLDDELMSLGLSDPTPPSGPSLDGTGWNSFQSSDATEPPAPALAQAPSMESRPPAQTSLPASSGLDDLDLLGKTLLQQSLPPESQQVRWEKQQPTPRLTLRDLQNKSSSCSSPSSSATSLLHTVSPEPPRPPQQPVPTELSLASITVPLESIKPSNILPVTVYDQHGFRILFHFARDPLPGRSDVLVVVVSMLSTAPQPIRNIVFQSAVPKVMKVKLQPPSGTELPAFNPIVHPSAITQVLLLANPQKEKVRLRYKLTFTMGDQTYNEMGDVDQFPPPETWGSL

Variants of: B1
Details: with rfip4_human RAB11FIP4, Q86YS3

| Variant | effect of a mutation on the interaction |
| --- | --- |
| Q67L | disrupting interaction |
| H76A | disrupting interaction |

Variants of: B1
Details: with rfip4_human RAB11FIP4, Q86YS3
Remark: another data set of the same source

| Variant | effect of a mutation on the interaction |
| --- | --- |
| Y77A | disrupting interaction |

Variants of: B2
Details: with kif23_human KIF23, Q02241

| Variant | effect of a mutation on the interaction |
| --- | --- |
| Y77A | disrupting interaction |
| Q67L | disrupting interaction |

Variants of: B2
Details: with kif23_human KIF23, Q02241
Remark: another data set of the same source

| Variant | effect of a mutation on the interaction |
| --- | --- |
| Q67L | increasing interaction |

Variants of: B2
Details: with kif23_human KIF23, Q02241
Remark: another data set of the same source

| Variant | effect of a mutation on the interaction |
| --- | --- |
| Q67L | decreasing interaction |
| H76A | decreasing interaction |

Variants of: B2
Details: with kif23_human KIF23, Q02241
Remark: another data set of the same source

| Variant | effect of a mutation on the interaction |
| --- | --- |
| T27N | decreasing interaction |

Variants of: B3
Details: with jip4_human SPAG9, O60271

| Variant | effect of a mutation on the interaction |
| --- | --- |
| H76A | disrupting interaction |

Variants of: B3
Details: with jip4_human SPAG9, O60271
Remark: another data set of the same source

| Variant | effect of a mutation on the interaction |
| --- | --- |
| Q67L | disrupting interaction |
| Y77A | disrupting interaction |

Variants of: B4
Details: with gga1_human GGA1, Q9UJY5

| Variant | effect of a mutation on the interaction |
| --- | --- |
| Q67L | disrupting interaction |
| Y77A | disrupting interaction |

Variants of: B4
Details: with gga1_human GGA1, Q9UJY5
Remark: another data set of the same source

| Variant | effect of a mutation on the interaction |
| --- | --- |
| H76A | disrupting interaction |
